Earlier results on one substance are cited in PMC9437294.

This data set concerns the target 5-HT1A receptor C-terminus (UniProt P19327).

Turning to “Yif1B N-terminal region (from UniProt Q6PEC3)”, the Kd (in general, the constant that tells how readily two partners part at equilibrium) is 37 nM.
